Measurements reported in patent publication US6872537.

B1: co-expressed baculovirus p60/p80 katanin heterodimer (both subunits with N-terminal His(6) tag) (protein)
chain 1: HHHHHHMSVDEICENTKMGREYALLGNYETSLVYYQGVLQQIQKLLTSVHEPQRKHQWQTIRQELSQEYEHVKNITKTLNGFKSEPAAPEPAPNHGRAAPFSHHQHAAKPAAAEPARDPDVWPPPTPVDHRPSPPYQRAARKDPPRRSEPSKPANRAPGNDRGGRGPSDRRGDARSGGGGRGGARGSDKDKNRGGKSDKDKKAPSGEEGDEKKFDPAGYDKDLVENLERDIVQRNPNVHWADIAGLTEAKRLLEEAVVLPLWMPDYFKGIRRPWKGVLMVGPPGTGKTMLAKAVATECGTTFFNVSSASLTSKYHGESEKLVRLLFEMARFYAPSTIFIDEIDSICSKRGTGSEHEASRRVKSELLIQMDGVSGPSAGEESSKMVMVLAATNFPWDIDEALRRRLEKRIYIPLPEIDGREQLLRINLKEVPLADDIDLKSIAEKMDGYSGADITNVCRDASMMAMRRRIQGLRPEEIRHIPKEELNQPSTPADFLLALQKVSKSVGKEDLVKYMAWMEEFGSV
chain 2: HHHHHHMATKRAWKLQELVAHSSNVNCLALGPMSGRVMVTGGEDKKVNLWAVGKQNCIISLSGHTSPVDSVKFNSSEELVVAGSQSGTMKIYDLEPAKIVRTLTGHRNSIRCMDFHPFGEFVASGSTDTNVKLWDVRRKGCIYTYKGHSDQVNMIKFSPDGKWLVTASEDTTIKLWDLTMGKLFQEFKNHTGGVTGIEFHPNEFLLASGSSDRTVQFWDLETFQLVSSTSPGASAVRSISFHPDGSYLFCSSQDMLHAFGWEPIRCFDTFSVFWGKVADTVIASTQLIGASFNATNVSVYVADLSRMSTTGIAQEPQSQPSKTPSGGAEEVPSKPLTASGRKNFVRERPHTTSSKQRQPDVKSEPERQSPTQDEGVKDDDATDIKDPDSYAKIFSPKTRVDHSPERNAQPFPAPLDVPGAQEPEPFKHPPKPAAAAAVAPVSRAPAPSASDWQPAQANPAPNRVPAATKPVPAQEVAPSRKPDPISTIIPSDRNKPANLDMDAFLPPAHAQQAPRVNAPASRKQSDSERIEGLRKGHDSMCQVLSSRHRNLDVVRAIWTAGDAKTSVESVVNMKDQAILVDILNIMLLKKSLWNLDMCVVVLPRLKELLSSKYENYVHTSCACLKLILKNFTSLFNQNIKCPPSGIDITREERYNKCSKCYSYLIATRGYVEEKQHVSGKLGSSFRELHLLLDQLE
B2: baculovirus-expressed S. purpuratus katanin p60 subunit with N-terminal His(6) tag (protein)
chain: B1 chain 1

Target: microtubules prepared from bovine brain tubulin

Protein	ATPase activity (malachite green), stimulation by microtubules	maximal microtubule-stimulated ATPase rate	microtubule concentration at peak ATPase stimulation	microtubule severing, fluorescence microscopy assay
B1	this activity was stimulated ˜10-fold by microtubules	maximal microtubule-stimulated rate of 3 ATP/katanin/sec	peak at ˜2 µM tubulin	Both p60 and p60/p80 severed microtubules in this assay
B2	p60 alone displayed a microtubule-stimulated ATPase activity	–	peak at ˜2 µM tubulin	Both p60 and p60/p80 severed microtubules in this assay
